Substitutions are numbered along the chain they refer to. In names and notes the source's numbering stands.
T1: IL-18 binding protein (IL-18BP) (UniProt O95998 31-194)
T1 sequence (looked up): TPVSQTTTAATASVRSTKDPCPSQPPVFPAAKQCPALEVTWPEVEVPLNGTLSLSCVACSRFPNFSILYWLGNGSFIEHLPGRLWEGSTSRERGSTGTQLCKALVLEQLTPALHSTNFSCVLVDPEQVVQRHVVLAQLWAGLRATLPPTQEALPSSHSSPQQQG

T2: IL-18 receptors on HEK-Blue IL-18 reporter cells (UniProt Q13478 19-541; O95256 20-599, limits assumed)
T2 sequence (looked up) 1: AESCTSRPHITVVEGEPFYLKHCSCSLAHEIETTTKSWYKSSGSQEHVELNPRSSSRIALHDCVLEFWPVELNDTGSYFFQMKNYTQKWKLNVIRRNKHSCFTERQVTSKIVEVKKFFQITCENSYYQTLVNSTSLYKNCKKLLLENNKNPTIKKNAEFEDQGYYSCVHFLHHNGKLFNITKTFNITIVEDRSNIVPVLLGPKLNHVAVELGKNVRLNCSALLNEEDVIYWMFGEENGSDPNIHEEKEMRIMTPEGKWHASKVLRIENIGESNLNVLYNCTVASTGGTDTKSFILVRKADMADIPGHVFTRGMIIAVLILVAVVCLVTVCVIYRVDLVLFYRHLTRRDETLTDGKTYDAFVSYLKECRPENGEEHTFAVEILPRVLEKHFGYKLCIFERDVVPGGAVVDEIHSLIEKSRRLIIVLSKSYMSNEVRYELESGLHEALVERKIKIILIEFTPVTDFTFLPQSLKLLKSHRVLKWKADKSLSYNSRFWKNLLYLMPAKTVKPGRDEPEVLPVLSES
T2 sequence (looked up) 2: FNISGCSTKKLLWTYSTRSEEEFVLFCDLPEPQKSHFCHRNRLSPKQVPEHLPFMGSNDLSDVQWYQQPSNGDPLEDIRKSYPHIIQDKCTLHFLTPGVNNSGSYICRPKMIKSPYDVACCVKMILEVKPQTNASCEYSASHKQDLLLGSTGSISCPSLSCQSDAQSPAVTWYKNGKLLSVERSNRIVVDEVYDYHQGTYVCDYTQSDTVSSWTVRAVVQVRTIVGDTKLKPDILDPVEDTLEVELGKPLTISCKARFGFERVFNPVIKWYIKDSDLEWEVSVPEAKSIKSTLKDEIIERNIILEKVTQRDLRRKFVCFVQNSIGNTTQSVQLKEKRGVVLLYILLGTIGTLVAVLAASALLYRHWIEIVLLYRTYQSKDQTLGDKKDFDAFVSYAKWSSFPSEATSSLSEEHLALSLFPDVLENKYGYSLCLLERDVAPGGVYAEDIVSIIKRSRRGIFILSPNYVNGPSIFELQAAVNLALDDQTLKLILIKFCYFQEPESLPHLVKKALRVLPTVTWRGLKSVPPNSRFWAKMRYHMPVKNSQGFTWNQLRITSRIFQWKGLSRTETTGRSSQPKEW

B1: IL-18 variant G3P, E6R, D54W, S55Q, T63S, N91T, R104H (ligand)
chain: YFPKLRSKLSVIRNLNDQVLFIDQGNRPLFEDMTDSDMRDNAPRTIFIISMYKWQQPRGMAVSISVKSEKISTLSSENKIISFKEMNPPDTIKDTKSDIIFFQHSVPGHDNKMQFESSSYEGYFLASEKERDLFKLILKKEDELGDRSIMFTVQNED
B2: IL-18 variant G3Q, E6N, D54Y, S55P, T63S, N91S, R104H (ligand)
chain: B1 chain with P3Q, R6N, W54Y, Q55P, T91S
B3: IL-18 variant G3S, E6G, D54V, S55K, T63S, N91Y, R104T (ligand)
chain: B1 chain with P3S, R6G, W54V, Q55K, T91Y, H104T
B4: IL-18 variant G3Y, E6N, N91Y, R104S (ligand)
chain: B1 chain with P3Y, R6N, W54D, Q55S, S63T, T91Y, H104S
B5: IL-18 variant G3Q, E6S, S55V, T63A, N91T (ligand)
chain: B1 chain with P3Q, R6S, W54D, Q55V, S63A, H104R
B6: IL-18 variant G3N, E6S, K53Q, D54W, S55R, N91T, R104T (ligand)
chain: B1 chain with P3N, R6S, K53Q, Q55R, S63T, H104T
B7: IL-18 variant G3Q, E6H, D54N, S55I, T63S, N91V (ligand)
chain: B1 chain with P3Q, R6H, W54N, Q55I, T91V, H104R
B8: IL-18 variant G3L, E6Q, T63S, N91L, R104T (ligand)
chain: B1 chain with P3L, R6Q, W54D, Q55S, T91L, H104T
B9: IL-18 variant G3E, E6G, N91M, R104A (ligand)
chain: B1 chain with P3E, R6G, W54D, Q55S, S63T, T91M, H104A
B10: IL-18 variant G3Y, E6S, K53S, D54W, S55L, N91I (ligand)
chain: B1 chain with P3Y, R6S, K53S, Q55L, S63T, T91I, H104R
B11: IL-18 variant G3Q, E6N (ligand)
chain: B1 chain with P3Q, R6N, W54D, Q55S, S63T, T91N, H104R
B12: IL-18 variant G3Y, E6S, K53S, D54W, S55L, T63S, N91I (ligand)
chain: B1 chain with P3Y, R6S, K53S, Q55L, T91I, H104R
B13: IL-18 variant G3E, E6H, R27S, D54A, S55T, T63S, N91F, R104S (ligand)
chain: B1 chain with P3E, R6H, R27S, W54A, Q55T, T91F, H104S
B14: IL-18 variant G3Q, E6K, D54S, S55P, T63S, N91S, R104Q (ligand)
chain: B1 chain with P3Q, R6K, W54S, Q55P, T91S, H104Q
B15: IL-18 variant G3P, E6V, K53A, D54W, S55P, T63S, N91L, R104K, Q154R (ligand)
chain: B1 chain with R6V, K53A, Q55P, T91L, H104K, Q154R
B16: IL-18 variant G3I, E6D, D54A, S55F, N91Y, R104H (ligand)
chain: B1 chain with P3I, R6D, W54A, Q55F, S63T, T91Y
B17: IL-18 variant G3Q, E6G, D54N, S55H, T63V, N91M, R104T (ligand)
chain: B1 chain with P3Q, R6G, W54N, Q55H, S63V, T91M, H104T

target: T1, IL-18 binding protein (IL-18BP); assay: cell-based or functional assay

| Binder | Activity, +100 nM BP, DF-1000002 | Activity, +100 nM BP, DF-5000003 | Activity, +100 nM BP, DF-25000004 | Ratio (-BP/+BP), DF-1000005 | Ratio (-BP/+BP), DF-5000006 | Ratio (-BP/+BP), DF-25000007 |
| --- | --- | --- | --- | --- | --- | --- |
| B1 | 0.89 | 0.26 | 0.12 | 0.83 | 0.96 | 0.78 |
| B2 | 0.9 | 0.42 | 0.14 | 1.52 | 1.76 | 1.97 |
| B3 | 1.64 | 0.85 | 0.32 | 1.19 | 2.08 | 3.88 |
| B4 | 1.78 | 1.2 | 0.6 | 1.05 | 1.5 | 2.59 |
| B5 | 1.15 | 0.46 | 0.15 | 1.68 | 4.03 | 10.7 |
| B6 | 0.46 | 0.15 | 0.14 | 0.99 | 0.93 | 1.02 |
| B7 | 1.8 | 1.43 | 0.71 | 1.05 | 1.33 | 2.31 |
| B8 | 1.81 | 1.15 | 0.46 | 1.17 | 1.75 | 4 |
| B9 | 1.93 | 1.41 | 0.53 | 1.06 | 1.41 | 2.92 |
| B10 | 0.78 | 0.26 | 0.12 | 0.9 | 0.95 | 1.22 |
| B11 | 1.88 | 1.52 | 0.84 | 1.04 | 1.27 | 2.2 |
| B12 | 0.62 | 0.23 | 0.12 | 1.09 | 0.99 | 0.84 |
| B13 | 1.8 | 1.11 | 0.41 | 1.16 | 1.65 | 2.79 |
| B14 | 1.55 | 1.15 | 0.45 | 1.24 | 1.67 | 3.14 |
| B15 | 0.6 | 0.19 | 0.09 | 0.94 | 0.96 | 0.91 |
| B16 | 2.05 | 1.45 | 0.74 | 1.02 | 1.35 | 1.81 |
| B17 | 1.83 | 1.38 | 0.7 | 1.09 | 1.32 | 1.44 |

target: T2, IL-18 receptors on HEK-Blue IL-18 …; assay: cell-based or functional assay

| Binder | Activity, No BP, DF-100000 | Activity, No BP, DF-500000 | Activity, No BP, DF-2500000 |
| --- | --- | --- | --- |
| B1 | 0.74 | 0.25 | 0.09 |
| B2 | 1.37 | 0.75 | 0.28 |
| B3 | 1.95 | 1.77 | 1.26 |
| B4 | 1.87 | 1.79 | 1.54 |
| B5 | 1.94 | 1.84 | 1.61 |
| B6 | 0.46 | 0.14 | 0.14 |
| B7 | 1.89 | 1.9 | 1.64 |
| B8 | 2.12 | 2.01 | 1.85 |
| B9 | 2.05 | 2 | 1.54 |
| B10 | 0.7 | 0.24 | 0.15 |
| B11 | 1.95 | 1.93 | 1.85 |
| B12 | 0.68 | 0.23 | 0.1 |
| B13 | 2.08 | 1.83 | 1.14 |
| B14 | 1.92 | 1.92 | 1.4 |
| B15 | 0.56 | 0.18 | 0.08 |
| B16 | 2.1 | 1.96 | 1.34 |
| B17 | 1.99 | 1.82 | 1.01 |
